Assay results as given in patent US20240360228A1 (BIOLEGEND, published 2024).

Key:
[1] = molecular target: T1, human chemokine (C-C motif) receptor 8 (CCR8) (human, UniProt P51685 1-355); test: flow cytometry blocking, human PBMC, CD3+ gate; competitor PE-L263G8
T1 construct: also called hCCR8

[2] = molecular target: T1, human chemokine (C-C motif) receptor 8 …; test: flow cytometry blocking, human PBMC, CD3+ gate; competitor PE-AB10
Experimental: (§1) For blocking studies, 100 μL of the cell suspension were incubated with 10 μg purified isotype control, AB1, AB2, AB3, AB4, AB5, AB8, AB9, AB10, AB11, AB12, AB13, AB14, AB15, and Commercial ABI antibodies, or isotype control, as blocking agents.
(§2) After incubation with the blocking agent, the cells were incubated with 0.25 μg of the indicated PE-conjugated antibody plus anti-human CD4 APC or anti-human CD3 for another 15 minutes in the dark and then washed 2 times with Cell Staining Buffer, and acquired in a FACSCanto II flow cytometer (BD Biosciences); the data was analyzed using FCS Express (De Novo Software); MFI correspond to the CCR8+ CD4+ lymphocytes or CCR8+ CD3+ lymphocytes.
(§3) Percentage original MFI was calculated by dividing the MFI of samples blocked with AB1, AB2, AB3, AB4, AB5, AB6, AB7, AB8, AB9, AB10, AB11, AB12, AB13, AB14, AB15, and Commercial ABI antibodies, by the MFI of samples blocked with the corresponding isotype control. This value was subtracted from 100 to get a blocking percentage. The formula is shown below: […]

[3] = molecular target: T1, human chemokine (C-C motif) receptor 8 …; test: flow cytometry blocking, human PBMC, CD3+ gate; % cells stained by competitor PE-433H after block
Experimental: as §1, §2

[4] = molecular target: T1, human chemokine (C-C motif) receptor 8 …; test: flow cytometry blocking, human PBMC, CD3+ gate; competitor PE-AB13
Experimental: as §1, §2, §3

[5] = molecular target: T1, human chemokine (C-C motif) receptor 8 …; test: flow cytometry blocking, human PBMC, CD3+ gate; % cells stained by competitor PE-AB10 after block
Experimental: as §1, §2

[6] = molecular target: T1, human chemokine (C-C motif) receptor 8 …; test: flow cytometry blocking, human PBMC, CD3+ gate; % cells stained by competitor PE-AB7 after block
Experimental: as §1, §2

[7] = molecular target: T1, human chemokine (C-C motif) receptor 8 …; test: flow cytometry blocking, human PBMC, CD3+ gate; competitor PE-AB5
Experimental: as §1, §2, §3

[8] = molecular target: T1, human chemokine (C-C motif) receptor 8 …; test: flow cytometry blocking, human PBMC, CD3+ gate; competitor PE-433H
[9] = molecular target: T1, human chemokine (C-C motif) receptor 8 …; test: flow cytometry blocking, human PBMC, CD3+ gate; % cells stained by competitor PE-AB13 after block
Experimental: as §1, §2

[10] = molecular target: T1, human chemokine (C-C motif) receptor 8 …; test: flow cytometry blocking, human PBMC, CD3+ gate; competitor PE-AB14
Experimental: as §1, §2, §3

[11] = molecular target: T1, human chemokine (C-C motif) receptor 8 …; test: flow cytometry blocking, human PBMC, CD3+ gate; competitor PE-AB11
Experimental: as §1, §2, §3

[12] = molecular target: T1, human chemokine (C-C motif) receptor 8 …; test: flow cytometry blocking, human PBMC, CD3+ gate; % cells stained by competitor PE-AB6 after block
Experimental: as §1, §2

[13] = molecular target: T1, human chemokine (C-C motif) receptor 8 …; test: flow cytometry blocking, human PBMC, CD3+ gate; % cells stained by competitor PE-AB12 after block
Experimental: as §1, §2

[14] = molecular target: T1, human chemokine (C-C motif) receptor 8 …; test: flow cytometry blocking, human PBMC, CD3+ gate; competitor PE-AB15
Experimental: as §1, §2, §3

[15] = molecular target: T1, human chemokine (C-C motif) receptor 8 …; test: flow cytometry blocking, human PBMC, CD3+ gate; % cells stained by competitor PE-L263G8 after block
Experimental: as §1, §2

[16] = molecular target: T1, human chemokine (C-C motif) receptor 8 …; test: flow cytometry blocking, human PBMC, CD3+ gate; competitor PE-AB12
Experimental: as §1, §2, §3

[17] = molecular target: T1, human chemokine (C-C motif) receptor 8 …; test: flow cytometry blocking, human PBMC, CD3+ gate; competitor PE-AB7
Experimental: as §1, §2, §3

[18] = molecular target: T1, human chemokine (C-C motif) receptor 8 …; test: flow cytometry blocking, human PBMC, CD3+ gate; % cells stained by competitor PE-AB15 after block
Experimental: as §1, §2

[19] = molecular target: T1, human chemokine (C-C motif) receptor 8 …; test: flow cytometry blocking, human PBMC, CD3+ gate; % cells stained by competitor PE-AB11 after block
Experimental: as §1, §2

[20] = molecular target: T1, human chemokine (C-C motif) receptor 8 …; test: flow cytometry blocking, human PBMC, CD3+ gate; % cells stained by competitor PE-AB8 after block
Experimental: as §1, §2

[21] = molecular target: T1, human chemokine (C-C motif) receptor 8 …; test: flow cytometry blocking, human PBMC, CD3+ gate; % cells stained by competitor PE-AB14 after block
Experimental: as §1, §2

[22] = molecular target: T1, human chemokine (C-C motif) receptor 8 …; test: flow cytometry blocking, human PBMC, CD3+ gate; competitor PE-AB6
Experimental: as §1, §2, §3

[23] = molecular target: T1, human chemokine (C-C motif) receptor 8 …; test: flow cytometry blocking, human PBMC, CD3+ gate; % cells stained by competitor PE-AB5 after block
Experimental: as §1, §2

[24] = molecular target: T1, human chemokine (C-C motif) receptor 8 …; test: flow cytometry blocking, human PBMC, CD3+ gate; competitor PE-AB8
Experimental: as §1, §2, §3

T1 sequence (P51685 whole entry): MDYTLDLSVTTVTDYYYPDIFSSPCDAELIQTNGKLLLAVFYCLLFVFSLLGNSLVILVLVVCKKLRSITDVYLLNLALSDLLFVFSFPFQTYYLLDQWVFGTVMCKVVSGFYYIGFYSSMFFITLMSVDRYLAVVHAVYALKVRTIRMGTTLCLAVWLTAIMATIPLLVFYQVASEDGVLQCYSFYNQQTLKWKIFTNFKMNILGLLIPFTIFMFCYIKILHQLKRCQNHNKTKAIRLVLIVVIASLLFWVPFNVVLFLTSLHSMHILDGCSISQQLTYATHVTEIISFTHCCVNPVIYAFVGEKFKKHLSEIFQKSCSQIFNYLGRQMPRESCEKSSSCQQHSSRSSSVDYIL

| Binder | % Blocking [1] | % Blocking [2] | % Positive cells [3] | % Blocking [4] | % Positive cells [5] | % Positive cells [6] | % Blocking [7] | % Blocking [8] | % Positive cells [9] | % Blocking [10] | % Blocking [11] | % Positive cells [12] | % Positive cells [13] | % Blocking [14] | % Positive cells [15] | % Blocking [16] | % Blocking [17] | % Positive cells [18] | % Positive cells [19] | % Positive cells [20] | further results |
| --- | --- | --- | --- | --- | --- | --- | --- | --- | --- | --- | --- | --- | --- | --- | --- | --- | --- | --- | --- | --- | --- |
| anti-CCR8 monoclonal antibody AB5 (antibody, V domains shown, Hybridoma monoclonal; also called antibody 5; clone 5) VH: QVQLKESGPGLVQPSQTLSLTCTVSGFSLTSYHVSWVRQPPGKGLEWMGVIWTGGSTTYNSLLKSRLSISRDISKSQVFLKMNSLQTEDTATYYCARGGTVVKGGFAYWGQGTLVTVSS VL: DIQMTQSPASLSASLEEIVTITCQASQDIGNRLSWYQQKPGKSPQLLIYGATSLADGVPSRFSGSRSGTQYSLKISRLQVEDIGIYYCLQAYSTPLTFGSGTKLEIK | -22.1% | -23.1% | 7.14% | -5.41% | 7.42% | 9.75% | 84.9% | -0.99% | 7.01% | 9.26% | -1.71% | 0.32% | 7.54% | -2.58% | 7.17% | -0.13% | -7.14% | 6.75% | 7.14% | 8.45% | % Positive cells [21]: 6.47%; % Blocking [22]: 96.1%; % Positive cells [23]: 1.25%; % Blocking [24]: 0.12% |
| anti-CCR8 monoclonal antibody AB10 (antibody, V domains shown, Hybridoma monoclonal; also called antibody 10; clone 10) VH: EVQLVETGGGLVQPKGSLKLSCAVSGFTFKTNAMNWVRQAPGKGLEWVARIRSKSNKYATYYADSVKDRFTISRDDSQSMLYLQMNNLKTEDTAMYYCVRGSEMGYYYAMDYWGQGTSVTVSS VL: DIVMTQAAPSVPVTPGESVSISCRSSKSLLHSNGNTYLYWFLQRPGQSPQLLIYRMSNLASGVPDRFSGSGSGTAFTLRISRVEAEDVGVYYCMQHLEYPFTFGGGTKLEIK | 90.3% | 97.5% | 5.66% | 88.1% | 0.15% | 4.54% | -5.55% | 19.9% | 0.79% | 96.2% | 96% | 7.78% | 0.46% | 95.6% | 0.57% | 93.9% | 50.1% | 0.29% | 0.28% | 4.35% | % Positive cells [21]: 0.27%; % Blocking [22]: 6.04%; % Positive cells [23]: 8.75%; % Blocking [24]: 48.6% |
| anti-CCR8 monoclonal antibody AB7 (antibody, V domains shown, Hybridoma monoclonal; also called antibody 7; clone 7) VH: AVQLVESGGGLVQPKESLKISCAASGFTFSYAAMYWVRQTPGKGLEWVARIRTKPNNYATYYADSVKGRFTISRDDSKSMVYLQMDNLKSEDTAMYYCNIMGITRGYYFDYWGQGVMVTVSS VL: DIQMTQSPSFLSASVGDRVTINCKASQNINRYLNWYQQQLGEAPKLLIYNANNLQTGIPSRFSGSRSGTDFTLTISSLQPEDVATYFCLQHNSWPWTFGGGTKLELK | 79.7% | 91.2% | 0.88% | 85.6% | 0.53% | 1.47% | -4.7% | 87.5% | 0.96% | 96.3% | 98% | 8.3% | 0.05% | 87.1% | 1.19% | 99.3% | 83.8% | 0.85% | 0.14% | 0.6% | % Positive cells [21]: 0.26%; % Blocking [22]: -0.24%; % Positive cells [23]: 8.68%; % Blocking [24]: 92.9% |

More lines, main results first:

| % Blocking [1] | % Blocking [2] | % Positive cells [3] | % Blocking [4] | % Positive cells [5] | % Positive cells [6] | % Blocking [7] | % Blocking [8] | % Positive cells [9] | % Blocking [10] | % Blocking [11] | % Positive cells [12] | % Positive cells [13] | % Blocking [14] | % Positive cells [15] | % Blocking [16] | % Blocking [17] | % Positive cells [18] | % Positive cells [19] | % Positive cells [20] | Binder | further results |
| --- | --- | --- | --- | --- | --- | --- | --- | --- | --- | --- | --- | --- | --- | --- | --- | --- | --- | --- | --- | --- | --- |
| -12.1% | 6.97% | 6.43% | 2.41% | 5.61% | 1.55% | 7.24% | 9.05% | 6.49% | 10.2% | -9.26% | 7.25% | 7.1% | 10% | 6.58% | 5.71% | 83% | 5.92% | 7.67% | 1.25% | anti-CCR8 monoclonal antibody AB6 (antibody, V domains shown, also called antibody 6; clone 6) VH: QVQLKESGPGLVQPSQTLSLTCTVSGFSLTSYHVSWVRQPPGKGLEWMGVIWTGGSTTYNSLLKSRLSISRDISKSQVFLKMNSLQTEDTATYYCARGGTVVKGGFAYWGQGTLVTVSS VL: DIQMTQSPASLSASLEEIVTITCQASQDIGNRLSWYQQKPGKSPQLLIYGATSLADGVPSRFSGSRSGTQYSLKISRLQVEDIGIYYCLQAYSTPLTFGSGTKLEIK | % Positive cells [21]: 6.4%; % Blocking [22]: 12.4%; % Positive cells [23]: 7.69%; % Blocking [24]: 85.2% |
| 92.5% | 89.2% | 0.84% | 96.1% | 0.65% | 8.51% | -7.96% | 88.1% | 0.26% | 98.5% | 90.2% | 8.17% | 0.05% | 98.9% | 0.44% | 99.3% | 6.48% | 0.07% | 0.69% | 6.94% | anti-CCR8 monoclonal antibody AB8 (antibody, V domains shown, Hybridoma monoclonal; also called antibody 8; clone 8) VH: AVQLVESGGGLVQPKESLKISCAASGFIFSNAAMYWVRQAPGKGLQWVARIRTKPKNYATYYIDSVKGRFTISRDDSKSMVYLQMDNLKTEDTAMYYCNTMGLTRAYYFDYWGQGVMVTVSS VL: DIQMTQSPSFLSASVGDRVTINCKASQNINRYLNWYQQKLGEAPKLLIYNANSLQTGIPSRFSGSGSGTDFTLTIRSLQPEDVATYFCLQHNSWPWTFGGGTKLELK | % Positive cells [21]: 0.11%; % Blocking [22]: 1.33%; % Positive cells [23]: 8.95%; % Blocking [24]: 18% |
